The text below walks through data of PMC7873046, “Structure of the Complete Dimeric Human GDAP1 Core Domain Provides Insights into Ligand Binding and Clustering of Disease Mutations” (Frontiers in Molecular Biosciences, 2021).

One series concerns the target T1, GDAP1∆319-358 (Homo sapiens, UniProt Q8TB36).
T1 construct: C-terminally truncated (residues 319-358 deleted; hydrophobic and transmembrane region), alpha-loop insertion kept; N-terminal tag cut with TEV; E. coli BL21(DE3); monomer/dimer equilibrium
T1 sequence (Q8TB36 1-318): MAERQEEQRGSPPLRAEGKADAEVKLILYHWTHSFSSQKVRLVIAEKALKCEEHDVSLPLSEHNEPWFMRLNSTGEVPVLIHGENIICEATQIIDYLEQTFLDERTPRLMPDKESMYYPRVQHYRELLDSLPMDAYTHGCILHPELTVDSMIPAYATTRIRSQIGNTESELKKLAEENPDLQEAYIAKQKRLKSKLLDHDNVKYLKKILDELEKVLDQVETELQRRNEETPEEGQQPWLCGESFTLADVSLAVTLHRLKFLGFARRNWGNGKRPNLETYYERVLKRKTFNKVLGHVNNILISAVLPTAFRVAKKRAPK
Kind of series: differential scanning fluorimetry (SYPRO Orange). The class given is binding. The conditions noted are these: pH 7.5, 300 mM NaCl, 2% DMSO; HA titrated up to 250 µM. In general terms: Differential scanning fluorimetry follows unfolding on heating by fluorescence.

Another series concerns the target T2, GDAP1∆295-358 (Homo sapiens, UniProt Q8TB36).
T2 construct: C-terminally truncated (residues 295-358 deleted), alpha-loop insertion kept; N-terminal tag cut with TEV; E. coli BL21(DE3); monomer/dimer equilibrium
T2 sequence (Q8TB36 1-294): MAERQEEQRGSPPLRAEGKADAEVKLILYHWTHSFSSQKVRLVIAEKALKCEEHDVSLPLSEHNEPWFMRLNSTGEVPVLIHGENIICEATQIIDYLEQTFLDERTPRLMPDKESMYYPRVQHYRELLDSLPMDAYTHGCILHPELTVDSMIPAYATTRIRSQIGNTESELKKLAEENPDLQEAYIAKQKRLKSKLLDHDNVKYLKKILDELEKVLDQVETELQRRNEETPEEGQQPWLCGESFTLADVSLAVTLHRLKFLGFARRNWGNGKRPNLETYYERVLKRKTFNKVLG
Kind of series: isothermal titration calorimetry. Format: binding. From the text:
isothermal titration calorimetry on GDAP1∆295-358
A general note: Isothermal titration calorimetry measures the heat released or taken up as one component is titrated into another.

Series [1] concerns the molecule itself. Kind of series: non-reducing SDS-PAGE; SEC eluates of purified proteins on a non-reducing gel (GDAP1L1 also on a reducing gel); shows the covalent (disulfide) dimer.
Series [2] concerns the molecule itself. Kind of series: SEC-MALS; Superdex 75 10/300 GL increase in SEC buffer (25 mM HEPES pH 7.5, 300 mM NaCl); protein 1-10 mg/ml, 15-150 µg injected. Background: SEC sorts molecules by how far they enter the pores of the column.
Series [3] concerns the molecule itself. Kind of series: SEC-SAXS; 50 µL of protein at 8.5-10 mg/ml injected into BioSEC3-300 or Superdex 75 10/300 GL increase; 25 mM HEPES pH 7.5, 300 mM NaCl; +15 °C; GDAP1∆295-358 and GDAP1∆319-358 also with hexadecanedioic acid (HA), which gave a higher monomer fraction.

As to `O=C(O)CCCCCCCCCCCCCCC(=O)O` [hexadecanedioic acid], the dTm at GDAP1∆319-358 was ~ 3 °C. For the same molecule, the Kd (usually the equilibrium constant for the complex coming apart) on GDAP1∆295-358 came out at 2000 ± 800 nM.

B1: GDAP1∆303-358 Y29F (domain or fragment, human, UniProt Q8TB36 1-302, looked up)
chain: MAERQEEQRGSPPLRAEGKADAEVKLILFHWTHSFSSQKVRLVIAEKALKCEEHDVSLPLSEHNEPWFMRLNSTGEVPVLIHGENIICEATQIIDYLEQTFLDERTPRLMPDKESMYYPRVQHYRELLDSLPMDAYTHGCILHPELTVDSMIPAYATTRIRSQIGNTESELKKLAEENPDLQEAYIAKQKRLKSKLLDHDNVKYLKKILDELEKVLDQVETELQRRNEETPEEGQQPWLCGESFTLADVSLAVTLHRLKFLGFARRNWGNGKRPNLETYYERVLKRKTFNKVLGHVNNILIS
notes: Point mutant of m2, made by site-directed mutagenesis PCR; source: E. coli BL21 (DE3), purified (Ni-NTA, TEV cleavage, SEC); not shown: His6, N-terminal, cleaved
Turning to B1, in series [1], the stoichiometry N (usually a count of units in the complex or per binding partner) worked out at 2.

B2: GDAP1∆303-358 (domain or fragment, human, UniProt Q8TB36 1-302, looked up)
chain: MAERQEEQRGSPPLRAEGKADAEVKLILYHWTHSFSSQKVRLVIAEKALKCEEHDVSLPLSEHNEPWFMRLNSTGEVPVLIHGENIICEATQIIDYLEQTFLDERTPRLMPDKESMYYPRVQHYRELLDSLPMDAYTHGCILHPELTVDSMIPAYATTRIRSQIGNTESELKKLAEENPDLQEAYIAKQKRLKSKLLDHDNVKYLKKILDELEKVLDQVETELQRRNEETPEEGQQPWLCGESFTLADVSLAVTLHRLKFLGFARRNWGNGKRPNLETYYERVLKRKTFNKVLGHVNNILIS
notes: The constructs were put into pTH27 (N-terminal His6) and pDEST-Trx (N-terminal thioredoxin); Tag cleaved with TEV protease; also called complete human GDAP1 core domain; source: E. coli BL21 (DE3), purified (Ni-NTA, TEV cleavage, SEC); not shown: His6, N-terminal, cleaved
Turning to B2, the “stoichiometry N” value in series [2] came to 2.

B3: GDAP1∆295-358 (domain or fragment, human, UniProt Q8TB36 1-294, looked up)
chain: MAERQEEQRGSPPLRAEGKADAEVKLILYHWTHSFSSQKVRLVIAEKALKCEEHDVSLPLSEHNEPWFMRLNSTGEVPVLIHGENIICEATQIIDYLEQTFLDERTPRLMPDKESMYYPRVQHYRELLDSLPMDAYTHGCILHPELTVDSMIPAYATTRIRSQIGNTESELKKLAEENPDLQEAYIAKQKRLKSKLLDHDNVKYLKKILDELEKVLDQVETELQRRNEETPEEGQQPWLCGESFTLADVSLAVTLHRLKFLGFARRNWGNGKRPNLETYYERVLKRKTFNKVLG
notes: The constructs were put into pTH27 (N-terminal His6) and pDEST-Trx (N-terminal thioredoxin); also called ganglioside-induced differentiation-associated protein 1, C-terminally truncated; GDAP1 core domain; source: E. coli BL21 (DE3), purified (Ni-NTA, TEV cleavage, SEC); not shown: His6, N-terminal, cleaved
Turning to B3, the “stoichiometry N” value in series [3] was 2.

B4: GDAP1∆319-358 (domain or fragment, human, UniProt Q8TB36 1-318, looked up)
chain: MAERQEEQRGSPPLRAEGKADAEVKLILYHWTHSFSSQKVRLVIAEKALKCEEHDVSLPLSEHNEPWFMRLNSTGEVPVLIHGENIICEATQIIDYLEQTFLDERTPRLMPDKESMYYPRVQHYRELLDSLPMDAYTHGCILHPELTVDSMIPAYATTRIRSQIGNTESELKKLAEENPDLQEAYIAKQKRLKSKLLDHDNVKYLKKILDELEKVLDQVETELQRRNEETPEEGQQPWLCGESFTLADVSLAVTLHRLKFLGFARRNWGNGKRPNLETYYERVLKRKTFNKVLGHVNNILISAVLPTAFRVAKKRAPK
notes: The constructs were put into pTH27 (N-terminal His6) and pDEST-Trx (N-terminal thioredoxin); Tag cleaved with TEV protease; also called ganglioside-induced differentiation-associated protein 1, C-terminally truncated; source: E. coli BL21 (DE3), purified (Ni-NTA, TEV cleavage, SEC); not shown: His6, N-terminal, cleaved
With B4, the “stoichiometry N” value in series [3] is 2.
